The source of these data is PMC4513881.

Data set [1] deals with T1, DCL1-AB (both dsRBDs) (Arabidopsis thaliana) (UniProt Q9SP32).
T1 sequence: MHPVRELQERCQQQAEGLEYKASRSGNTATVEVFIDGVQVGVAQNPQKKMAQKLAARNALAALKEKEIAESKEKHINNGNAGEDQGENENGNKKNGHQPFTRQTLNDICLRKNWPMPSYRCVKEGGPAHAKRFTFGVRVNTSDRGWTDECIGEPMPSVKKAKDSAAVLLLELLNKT
In words: fluorescence anisotropy. The note with it: FA: 10 mM phosphate pH 7.0, 50 nM labeled nucleic acid, temperature not stated; CD: 10 mM phosphate pH 7; NMR complex: 20 mM phosphate pH 7.0, 5 mM TCEP.

For data set [2], the target named is T2, DCL1-A (first dsRBD) (Arabidopsis thaliana) (UniProt Q9SP32).
T2 sequence: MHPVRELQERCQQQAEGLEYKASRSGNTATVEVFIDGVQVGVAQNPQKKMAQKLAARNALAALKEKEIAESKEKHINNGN
In words: fluorescence anisotropy. The note with it: FA: 10 mM phosphate pH 7.0, 50 nM labeled nucleic acid, temperature not stated; CD: 10 mM phosphate pH 7; NMR complex: 20 mM phosphate pH 7.0, 5 mM TCEP. For orientation: In fluorescence polarisation assays a small probe gives low polarisation when free and higher when bound to something large.

By Kd is commonly meant the concentration at which binding is half-saturated. A higher Kd goes with lower affinity. Turning to dsDNA, the Kd in data set [1] stood at 680 nM; in data set [2] it was 860 nM.

In the case of miR172a stem-loop (miRNA/miRNA* region), the values for the Kd in data set [1] and in data set [2] were 67 nM and 723 nM, respectively.
